Assay [1] deals with CA of isolated HIV-1 A14C/E45C cores (HIV-1). Kind of assay: cross-linking; isolated HIV-1 cores with double-cysteine mutant CA, with or without oxidizer; non-reducing SDS-PAGE, immunoblotting with rabbit anti-CA serum. (In general: Immunoblotting shows a protein as a band on a membrane.)
Assay [2] addresses CA of isolated HIV-1 P207C/T216C cores, without oxidizer (HIV-1). The assay is described as above.
For assay [3], the target named is HIV-1 CA A14C/E45C, tubular assemblies (HIV-1). The assay is described as follows: cross-linking; preassembled double-cysteine mutant CA tubes oxidized with CuSO4/1,10-phenanthroline for 5 seconds, quenched with iodoacetamide and neocuproine; non-reducing SDS-PAGE, Coomassie Blue; with or without prior TRIM5α CC-SPRY (18 µM).
In assay [4] the target is HIV-1 CA P207C/T216C, tubular assemblies, non-oxidized (HIV-1). Described as above.
Assay [5] addresses HIV-1 capsid-nucleocapsid (CA-NC), preassembled tubular assemblies (HIV-1). Kind of assay: co-sedimentation; preassembled CA-NC tubes (2 mg/ml or 10 µM, with TG50 oligonucleotide) incubated with TRIM5α CC-SPRY (0-20 µM) 1 hr at room temperature; pelleted at 20,000 g 15 min; SDS-PAGE, Coomassie Blue, gel densitometry of pellet.
Assay [6] concerns the target HIV-1 capsid protein (CA), wild type, preassembled tubular assemblies (HIV-1). Kind of assay: co-sedimentation; preassembled wild-type CA tubes (64 µM) incubated with TRIM5α CC-SPRY (0-20 µM) 1 hr at room temperature in 10 mM Tris pH 7.5, 330 mM NaCl, 1 mM TCEP, 5% glycerol; pelleted at 20,000 g 15 min; SDS-PAGE, Coomassie Blue, gel densitometry of pellet.

In assay [1], “CA of isolated HIV-1 A14C/E45C cores (natural protein)” came in with a stoichiometry N of 6.

On to “CA of isolated HIV-1 P207C/T216C cores, without oxidizer (natural protein)”, for which the stoichiometry N in assay [2] was 3.

Consider “HIV-1 CA A14C/E45C, tubular assemblies (natural protein)”, for which, in assay [3], the stoichiometry N turned out to be 6.

In the case of “HIV-1 CA P207C/T216C, tubular assemblies, non-oxidized (natural protein)”, in assay [4], the stoichiometry N stood at 3.

Consider “Rhesus macaque TRIM5α coiled-coil and SPRY domains (TRIM5αrh CC-SPRY, residues 134–497) (from UniProt Q0PF16 134-497) (domain or fragment)”, for which, in assay [5], the binding ratio (molar ratio of bound TRIM5αrh CC-SPRY to CA-NC in the pellet) at 1 µM TRIM5αrh CC-SPRY and 10 µM CA-NC was 0.034 molar ratio; the binding ratio (molar ratio of bound TRIM5αrh CC-SPRY to CA-NC in the pellet) at 18 µM TRIM5αrh CC-SPRY was 0.21 molar ratio. In addition, the binding ratio (molar ratio of bound TRIM5αrh CC-SPRY to CA in the pellet) at 18 µM TRIM5αrh CC-SPRY in assay [6] came out at 0.41 molar ratio.

A word on the stoichiometry N: it is the number of molecules, sites or subunits per partner or assembly.
